Assay results: publication PMC9774280, “Colon-Targeted eNAMPT-Specific Peptide Systems for Treatment of DSS-Induced Acute and Chronic Colitis in Mouse” (Antioxidants, 2022)

Key:
[1] = target: fluorescently labeled CYBB (recombinant) (UniProt P04839 1-570, fluorescently labeled); assay: other fluorescence titration; fluorescently labeled TLR4 or CYBB titrated with unlabeled NAMPT; recombinant proteins; Kd by curve fit analysis; conditions: both partners purified
[2] = target: fluorescently labeled TLR4 (recombinant) (UniProt O00206 24-839, fluorescently labeled); assay: as above; conditions: both partners purified

fluorescently labeled CYBB (recombinant), sequence (P04839 whole entry): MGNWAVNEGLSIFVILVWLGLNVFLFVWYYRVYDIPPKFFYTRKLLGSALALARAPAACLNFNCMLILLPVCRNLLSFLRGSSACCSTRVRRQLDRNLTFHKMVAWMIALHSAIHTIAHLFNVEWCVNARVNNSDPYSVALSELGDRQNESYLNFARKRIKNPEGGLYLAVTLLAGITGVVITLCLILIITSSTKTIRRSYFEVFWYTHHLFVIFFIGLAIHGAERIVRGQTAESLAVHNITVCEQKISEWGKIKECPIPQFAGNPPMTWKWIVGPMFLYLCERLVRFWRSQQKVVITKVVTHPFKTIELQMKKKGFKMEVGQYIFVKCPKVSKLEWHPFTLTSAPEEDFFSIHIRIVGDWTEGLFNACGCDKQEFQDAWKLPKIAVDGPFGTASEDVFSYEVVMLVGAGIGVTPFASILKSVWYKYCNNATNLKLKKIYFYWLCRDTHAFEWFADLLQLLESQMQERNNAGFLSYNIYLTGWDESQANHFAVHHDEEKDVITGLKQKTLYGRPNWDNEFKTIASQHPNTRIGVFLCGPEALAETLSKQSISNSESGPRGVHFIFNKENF

Kd [1]: 896 nM | Kd [2]: 219 nM
B1: recombinant NAMPT protein (natural protein, UniProt P43490 1-491, looked up)
chain: MNPAAEAEFNILLATDSYKVTHYKQYPPNTSKVYSYFECREKKTENSKLRKVKYEETVFYGLQYILNKYLKGKVVTKEKIQEAKDVYKEHFQDDVFNEKGWNYILEKYDGHLPIEIKAVPEGFVIPRGNVLFTVENTDPECYWLTNWIETILVQSWYPITVATNSREQKKILAKYLLETSGNLDGLEYKLHDFGYRGVSSQETAGIGASAHLVNFKGTDTVAGLALIKKYYGTKDPVPGYSVPAAEHSTITAWGKDHEKDAFEHIVTQFSSVPVSVVSDSYDIYNACEKIWGEDLRHLIVSRSTQAPLIIRPDSGNPLDTVLKVLEILGKKFPVTENSKGYKLLPPYLRVIQGDGVDINTLQEIVEGMKQKMWSIENIAFGSGGGLLQKLTRDLLNCSFKCSYVVTNGLGINVFKDPVADPNKRSKKGRLSLHRTPAGNFVTLEEGKGDLEEYGQDLLHTVFKNGKVTKSYSFDEIRKNAQLNIELEAAHH
notes: recombinant NAMPT protein added to BMDMs and precipitated with anti-His; The His tag is known only from the anti-His precipitation; also called rNAMPT; eNAMPT; source: recombinant
